# Experimental data: article doi:10.1101/2024.10.21.619395
# Molecular target: G protein-coupled bile acid receptor 1 (GPBAR1), full length, with N-terminal FLAG and BRIL (human) (UniProt Q8TDU6)
# Assay: mass photometry
# Chain of UniProt Q8TDU6 (Q8TDU6 whole entry): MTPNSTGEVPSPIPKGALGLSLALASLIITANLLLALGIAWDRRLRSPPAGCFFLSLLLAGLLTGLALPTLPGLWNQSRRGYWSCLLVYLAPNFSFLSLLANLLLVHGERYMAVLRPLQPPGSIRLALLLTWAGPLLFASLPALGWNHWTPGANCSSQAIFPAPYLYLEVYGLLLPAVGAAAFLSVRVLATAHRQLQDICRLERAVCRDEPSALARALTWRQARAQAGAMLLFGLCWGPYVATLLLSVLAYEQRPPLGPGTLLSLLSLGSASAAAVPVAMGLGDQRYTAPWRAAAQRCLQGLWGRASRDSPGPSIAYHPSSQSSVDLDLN
substance,measurement,value
"Heterotrimeric Gs (Gαs, Gβ1, Gγ2) (from UniProt P63096 1-18; P63092 16-394; P62873 2-340; P59768 1-71) (complex)",stoichiometry N,1
